The results in this text go back to patent US20150273076A1, “SP1 POLYPEPTIDES, MODIFIED SP1 POLYPEPTIDES AND USES THEREOF” (Fulcrum SP Ltd., priority 2006, published 2015).

Changes are numbered by the printed parent chain. In names and notes the source's numbering stands.

To fix the notation:
B1: 6H2: six histidine N-terminal tagged SP1, SEQ ID NO:7 (protein)
chain: MHHHHHHATRTPKLVKHTLLTRFKDEITREQIDNYINDYTNLLDLIPSMKSFNWGTDLGMESAELNRGYTHAFESTFESKSGLQEYLDSAALAAFAEGFLPTLSQRLVIDYFLY
B2: D38A S75A 6XH2: SP1 mutant D38A S75A 6XH2, SEQ ID NO:29 (protein)
chain: B1 chain with D38A, D44A, S75A, S81A
modifications: Sp1 mutant variant 6Xhis inserted into position 2, D38A and S75A mutated
B3: N31A T34A 6XH2: SP1 mutant N31A T34A 6XH2, SEQ ID NO:30 (protein)
chain: B1 chain with N37A, T40A
modifications: Sp1 mutant variant 6Xhis inserted into position 2, N31A and T34A mutated
B4: F106A 6XH2: SP1 mutant F106A 6XH2, SEQ ID NO:23 (protein)
chain: B1 chain with F112A
modifications: Sp1 mutant variant 6Xhis inserted into position 2 and F106A mutated
B5: R23A: SP1 mutant R23A, SEQ ID NO:12 (protein)
chain: MATRTPKLVKHTLLTRFKDEITAEQIDNYINDYTNLLDLIPSMKSFNWGTDLGMESAELNRGYTHAFESTFESKSGLQEYLDSAALAAFAEGFLPTLSQRLVIDYFLY
modifications: Sp1 mutant variant R23A mutated
B6: D38A: SP1 mutant D38A, SEQ ID NO:17 (protein)
chain: B5 chain with A23R, D38A
modifications: Sp1 mutant variant D38A mutated
B7: E68A: SP1 mutant E68A, SEQ ID NO:19 (protein)
chain: B5 chain with A23R, E68A
modifications: Sp1 mutant variant E68A mutated
B8: T34A: SP1 mutant T34A, SEQ ID NO:16 (protein)
chain: B5 chain with A23R, T34A
modifications: Sp1 mutant variant T34A mutated
B9: Y108A: SP1 mutant Y108A, SEQ ID NO:24 (protein)
chain: B5 chain with A23R, Y108A
modifications: Sp1 mutant variant Y108A mutated
B10: N31A: SP1 mutant N31A, SEQ ID NO:15 (protein)
chain: B5 chain with A23R, N31A
modifications: Sp1 mutant variant N31A mutated
B11: I30A: SP1 mutant I30A, SEQ ID NO:14 (protein)
chain: B5 chain with A23R, I30A
modifications: Sp1 mutant variant I30A mutated
B12: Δ2-6 His2: SP1 variant Δ2-6 His2, SEQ ID NO:8 (protein)
chain: MHKLVKHTLLTRFKDEITREQIDNYINDYTNLLDLIPSMKSFNWGTDLGMESAELNRGYTHAFESTFESKSGLQEYLDSAALAAFAEGFLPTLSQRLVIDYFLY
modifications: Sp1 mutant variant His inserted into position 2 together with a deletion of amino acid 2-6
B13: Cys2 K18R Gly19: Insertion of Cys residue in position 2 and of glycine residue in position 19, K18R (Cys2loop1RGd), SEQ ID NO:11 (protein)
chain: MCATRTPKLVKHTLLTRFRGDEITREQIDNYINDYTNLLDLIPSMKSFNWGTDLGMESAELNRGYTHAFESTFESKSGLQEYLDSAALAAFAEGFLPTLSQRLVIDYFLY
modifications: Sp1 mutant variant Cys inserted into position 2, K18R mutated and a Gly inserted into position 19
B14: S73A S75A 6XH2: SP1 mutant S73A S75A 6XH2, SEQ ID NO:28 (protein)
chain: B1 chain with S79A, S81A
modifications: Sp1 mutant variant 6Xhis inserted into position 2, S73A and S75A mutated
B15: HH2: SP1 N-terminus modification HH2, SEQ ID NO:4 (protein)
chain: MHHATRTPKLVKHTLLTRFKDEITREQIDNYINDYTNLLDLIPSMKSFNWGTDLGMESAELNRGYTHAFESTFESKSGLQEYLDSAALAAFAEGFLPTLSQRLVIDYFLY
modifications: Sp1 mutant variant 2X His inserted into position 2
B16: Δ2-7 Cys2: SP1 variant Δ2-7 Cys2, SEQ ID NO:9 (protein)
chain: MCLVKHTLLTRFKDEITREQIDNYINDYTNLLDLIPSMKSFNWGTDLGMESAELNRGYTHAFESTFESKSGLQEYLDSAALAAFAEGFLPTLSQRLVIDYFLY
modifications: Sp1 mutant variant Cys inserted into position 2 together with a deletion of amino acid 2-7
B17: Δ2-6 L81C: SP1 variant Δ2-6 L81C, external perimeters of the dodecamer ring, SEQ ID NO:22 (protein)
chain: B16 chain with C2K, L76C
modifications: Sp1 mutant variant amino acids 2-6 deleted and L81C mutated
B18: Δ2-6 I40C: SP1 Loop 2 modification Δ2-6 I40C, SEQ ID NO:18 (protein)
chain: B16 chain with C2K, I35C
modifications: Sp1 mutant variant amino acids 2-6 deleted and I40C mutated
B19: Δ2-6 E72C: SP1 Loop 4 modification Δ2-6 E72C, SEQ ID NO:20 (protein)
chain: B16 chain with C2K, E67C
modifications: Sp1 mutant variant amino acids 2-6 deleted and E72C mutated
B20: 42-6 S73C: SP1 Loop 4 modification, printed 42-6 S73C, SEQ ID NO:21 (protein)
chain: B16 chain with C2K, S68C
modifications: Sp1 mutant variant amino acids 2-6 deleted and S73C mutated
B21: D27A: SP1 mutant D27A, SEQ ID NO:13 (protein)
chain: B5 chain with A23R, D27A
modifications: Sp1 mutant variant D27A mutated

The nature of the first data set: Protein melting point by DSC. The format is physicochemical. The note with it: protein melting point by DSC; in °C (unit assumed). How it is done:
Differential scanning calorimetry study of SP1 indicates in a Tm of 107° C. for SP1. […] Further, folding and refolding of inclusion bodies including insoluble SP1, and the heat stability of the unfolded proteins indicate that the intact monomer, as well as the oligomer, is heat resistant (FIG. 5).
A general note: DSC measures the heat that a sample takes up or gives off during a temperature scan.
Regarding B1, the Tm is reported as 109. Consider B2, for which the Tm is 112. Take B3: the Tm was found to be 96.6. With B4, the Tm is 75.

Regarding B5, the Tm came to 108.

B6: the Tm is listed as 113.

Consider B7, for which the Tm is recorded as 105.8. On to B8, for which the Tm is on record as 114. For the molecule B9, the Tm was 68. Consider B10, for which the Tm turned out to be 110. As for B11, the Tm amounted to 98.

Another data set in a line: Heat stability (no precipitation after heat treatment). The note with it: 10 min at 100° C. or 30 min at 85° C.
Turning to B12, the Heat stability entry is on record as “+”. Turning to B13, the Heat stability entry was “+”. On the same count and under the same terms, with B2 the entry was “+”. Same read-out and setting: as for B14, the entry is “+”; as for B15, “+”; as for B16, “+”.

Consider B17, for which the Heat stability entry is reported as “+”. On the same count and under the same terms, as for B18, the entry is “+”; as for B19, “+”.

In the case of B20, the Heat stability entry is on record as “+”.

In the case of B5, the Heat stability result is on record as “+”. The same measure, in the same setting: with B6 the entry was “+”; with B21, “+”. Consider B7, for which the Heat stability result is given as “+”. Still for that read-out and setting: as for B8, the entry is “+”. On to B10, for which the Heat stability result was “+”.

Another data set in a line: Oligomeric complex formation by SDS PAGE (unboiled samples). Conditions: SDS PAGE, samples not boiled in the application buffer.
Procedure: SP1 (20 μg) was prepared in SDS sample buffer at different SP1-monomer: SDS molar ratios and boiled (or not) (5 mM) prior to SDS-PAGE analysis. Heat stability of SP1 oligomer (10 μg) was tested in the same buffer at SP1-monomer: SDS=1:1733 and heated for 1 to 10 mM at different temperatures.
Purified 6HSP1 and ΔNSP1 were first denatured to the monomeric forms by boiling the proteins in SDS sample buffer. The denatured proteins were then separated in preparative SDS-PAGE, and visualized by Coomassie blue staining. The monomeric forms of two recombinant protein bands were excised. Gel slices that carried monomeric form of 6HSP1 (SEQ ID NO:7) and ΔNSP1 (SEQ ID NO:2) were mixed at 1:1 ratio (v/v). In order to enhance the surface/volume ratio, the gel slices were pulverized using a pestle and mortar in the presence of liquid nitrogen. […] The hetero-oligomeric complex was isolated by subjecting the eluated protein to Ni-NTA Agarose beads and the bound proteins were eluted by 400 mM imidazole using a standard procedure (Sigma protocol for P 6611). […] The composition of hetero-oligomeric SP1 was determined by SDS-PAGE and visualized by silver staining.
Consider B19, for which the “Complex Formation” value came out at 10.

With B20, the “Complex Formation” value worked out at 11.

The data set is the same for the next values; noted with them: boiling and protease stability.
Take B13: the “oligomeric complex formation, stability and resistance” value was “formed a boiling stable and protease resistant dodecamer”.
